Molecular target: the molecule itself
Assay: SEC

Row | Molecule | stoichiometry N
1 | GAS2-GAR domain (residues 198-314) (domain or fragment) STGNLLDDAVKRISEDPPCKCPTKFCVERLSQGRYRVGEKILFIRMLHNKHVMVRVGGGWETFAGYLLKHDPCRMLQISRVDGKTSPVQSKSPTLKDMNPDNYLVVSATYKAKKEIK | 2

What follows are molecules tested against microtubules (polymerized porcine brain tubulin) (porcine) (UniProt Q2XVP4) (assay: co-sedimentation).

Row | Molecule | Kd [µM]
2 | GAS2-GAR G255A (from UniProt P11862 198-314) (domain or fragment) | 2.69
3 | GAS2-GAR G255E (from UniProt P11862 198-314) (domain or fragment) | 9.6
4 | GAS2-GAR K266E (from UniProt P11862 198-314) (domain or fragment) | 10.6
5 | GAS2-GAR R242E (from UniProt P11862 198-314) (domain or fragment) | 5
6 | GAS2-GAR R252E (from UniProt P11862 198-314) (domain or fragment) | 47
7 | GAS2-GAR W257E (from UniProt P11862 198-314) (domain or fragment) | 27
8 | GAS2-GAR domain (residues 198-314) (domain or fragment) STGNLLDDAVKRISEDPPCKCPTKFCVERLSQGRYRVGEKILFIRMLHNKHVMVRVGGGWETFAGYLLKHDPCRMLQISRVDGKTSPVQSKSPTLKDMNPDNYLVVSATYKAKKEIK | 0.69

From article doi:10.1101/2024.08.19.608523 (bioRxiv, 2024)
